Consider two molecules from patent publication US20040006215A1 (Bristol-Myers Squibb, published 2004).

“And” between values parts separate entries of the source, which are not always exact repeats. Equal entries are not always repeated.

In assay [1] the target is T1, recombinant CD30 (supernatant from transfected cells expressing recombinant CD30) (UniProt P28908 19-379, limits assumed).
T1 construct: May be the same preparation as the soluble recombinant CD30 used for immunisation or as m4
T1 sequence (looked up): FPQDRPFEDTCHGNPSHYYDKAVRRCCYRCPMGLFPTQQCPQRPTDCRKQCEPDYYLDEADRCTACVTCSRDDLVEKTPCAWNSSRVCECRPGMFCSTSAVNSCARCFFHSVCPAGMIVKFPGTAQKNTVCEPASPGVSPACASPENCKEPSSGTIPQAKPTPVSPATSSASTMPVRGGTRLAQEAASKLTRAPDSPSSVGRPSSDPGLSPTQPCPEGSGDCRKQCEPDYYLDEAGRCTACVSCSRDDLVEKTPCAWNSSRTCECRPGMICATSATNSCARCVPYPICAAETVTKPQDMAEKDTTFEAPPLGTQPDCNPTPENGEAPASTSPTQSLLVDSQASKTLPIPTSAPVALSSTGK
In words: capture ELISA: recombinant CD30 captured on BerH2-coated wells, detection with AP-labeled goat anti-human IgG Fc, OD405. The procedure:
Microtiter wells were coated with BerH2. After blocking the wells with 5% BSA solution, supernatant from transfected cells expressing recombinant CD30 was allowed to react with BER-H2 coated wells. […] After 1 hour, the wells were washed with PBS-tween and the bound antibodies were detected by incubating the cells with an alkaline-phosphatase-labeled goat anti-human IgG Fc-specific probe, at 37° C. The excess probe was washed from the wells and the plate was developed with pNPP developer. The optical density at 405 nm was determined using a microtiter plate reader.

Assay [2] has as its target T2, native CD30 expressed on cells (L540 Hodgkin's lymphoma cell line) (human, UniProt P28908 19-595).
T2 construct: whole, on cells; also called CD30 on L540 cells; CD30-expressing L540 cells
T2 sequence (looked up): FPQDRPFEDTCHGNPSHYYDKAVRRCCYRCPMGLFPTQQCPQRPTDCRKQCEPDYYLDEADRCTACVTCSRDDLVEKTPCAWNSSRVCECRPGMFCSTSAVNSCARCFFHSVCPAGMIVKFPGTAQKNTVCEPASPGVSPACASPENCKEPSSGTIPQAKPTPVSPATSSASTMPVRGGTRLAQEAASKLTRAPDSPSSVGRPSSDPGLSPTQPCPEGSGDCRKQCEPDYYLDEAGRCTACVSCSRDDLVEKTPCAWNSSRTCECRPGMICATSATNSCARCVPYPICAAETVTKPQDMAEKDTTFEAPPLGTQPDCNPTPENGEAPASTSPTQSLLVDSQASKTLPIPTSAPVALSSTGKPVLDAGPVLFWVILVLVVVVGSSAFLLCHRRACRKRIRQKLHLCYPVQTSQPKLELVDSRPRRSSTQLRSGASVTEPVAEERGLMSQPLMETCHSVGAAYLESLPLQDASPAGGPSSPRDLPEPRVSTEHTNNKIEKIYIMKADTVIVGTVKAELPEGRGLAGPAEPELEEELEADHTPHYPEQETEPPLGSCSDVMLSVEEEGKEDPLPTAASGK
In words: flow cytometry on L540 cells at 4 °C, detection with FITC-labeled goat anti-human IgG Fc, mean fluorescence intensity. The procedure:
Antibodies were tested for binding to L540, a Hodgkin's lymphoma cell line that expresses high-levels of CD30. […] After 1 hour, the cells were washed with PBS and the bound antibodies were detected by incubating the cells with a FITC labeled goat anti-human IgG Fc-specific probe, at 4° C. The excess probe was washed from the cells with PBS and the cell associated fluorescence was determined by analysis using a FACScalibur instrument.

Assay [3] deals with T3, Human CD30 antigen (Medarex, Inc.) (human) (UniProt P28908).
T3 sequence (looked up): T1 sequence (looked up)
Put plainly: SPR (Biacore 3000), 5F11 captured on protein A, CD30 as analyte, 1:1 Langmuir fit, experiment 2.

Assay [4] concerns the target native CD30 expressed on cells (L540 Hodgkin's lymphoma cell line) (human) (UniProt P28908). In words: flow cytometry on L540 cells.
Assay [5] has the same target. In words: flow cytometry on L540 cells at 4 °C, detection with FITC-labeled goat anti-human IgG Fc, mean fluorescence intensity.
In assay [6] the target is T4, recombinant CD30 (supernatant from transfected cells expressing recombinant CD30) (UniProt P28908).
T4 sequence (looked up): T1 sequence (looked up)
Put plainly: capture ELISA: recombinant CD30 captured on BerH2-coated wells, detection with AP-labeled goat anti-human IgG Fc, OD405. (In general: An ELISA detects its analyte on a solid surface through an enzyme-linked reagent.)

Assay [7] has as its target native CD30 expressed on cells (L540 Hodgkin's lymphoma cell line) (human) (UniProt P28908). Put plainly: cell-based or functional assay.
For assay [8], the target named is T3, Human CD30 antigen (Medarex, Inc.) (human). In words: SPR (Biacore 3000), 5F11 captured on protein A, CD30 as analyte, 1:1 Langmuir fit, experiment 1.

B1: human monoclonal antibody (HuMab) 2H9 (antibody, V domains shown)
VH: QVQLQQWGAGLLKPSETLSLTCAVYGGSFSGYYWSWIRQPPGKGLEWIGEINHSGSTKYTPSLKSRVTISVDTSKHQFSLKLSSVTAADTAVYYCARETVYYFDLWGRGTLVTVSS
VL: EIVLTQSPATLSLSPGERATLSCRASQSVSSNLAWYQQKPGQAPRLLIYDASNRATGIPARLSGSGSGTDFTLTISSLEPEDFAVYYCQQRSNWPWTFGQGTKVEIK
In general, EC50 (read off the curve) refers to the concentration needed to bring the measured effect to its halfway point. As for B1, the results for the “EC50 (read off the curve)” value in assay [1] and in assay [2] were approximately 0.03 µg/mL and approximately 0.1 µg/mL, respectively.

B2: human monoclonal antibody (HuMab) 5F11 (antibody, V domains shown)
VH: QVQLQQWGAGLLKPSETLSLTCAVYGGSFSAYYWSWIRQPPGKGLEWIGDINHGGGTNYNPSLKSRVTISVDTSKNQFSLKLNSVTAADTAVYYCASLTAYWGQGSLVTVSS
VL: DIQMTQSPTSLSASVGDRVTITCRASQGISSWLTWYQQKPEKAPKSLIYAASSLQSGVPSRFSGSGSGTDFTLTISSLQPEDFATYYCQQYDSYPITFGQGTRLEIK
The Kd is the free concentration of one partner at which half of the binding sites on the other are occupied at equilibrium, for simple one-to-one binding. High values mean lower affinity, low ones higher affinity. As a reminder, the koff is a measure of how fast the partners let go of each other. A high value points to fast dissociation. For orientation: kon means a measure of how fast the partners come together. As for B2, in assay [3], the Kd is 1.14 nM and 1.12 nM; the koff was 6.58e-05 s⁻¹ and 6.86e-05 s⁻¹; the kon was 57700 M⁻¹ s⁻¹ and 61300 M⁻¹ s⁻¹. In assay [4], this molecule displayed a concentration at saturation of less than 1 µg/mL. In assay [5], the EC50 (read off the curve) is 0.05 µg/mL. In assay [6], the EC50 (read off the curve) is 0.04 µg/mL. Further, the IC50 of growth inhibition (XTT assay) of L540 and Karpas 299 cells, 5F11 cross-linked by goat-anti-human IgG in assay [7] was 10 µg/mL. Further, in assay [8], the Kd was 1.23 nM and 1.36 nM; the koff was 7.47e-05 s⁻¹ and 7.03e-05 s⁻¹; the kon was 60900 M⁻¹ s⁻¹ and 51600 M⁻¹ s⁻¹.
